Numbered stars: 1 amine (or outer) side, 2 acyl side, 3 side chain; on linkers, the order of the positions; unused ones are H or OH. Bridge positions count the residues as written; N and C are the ends. Side chains are listed from the residue outwards. Ends that are not written are not given here. * marks the point of attachment. C20 diacid = O=C(O)CCCCCCCCCCCCCCCCCCC(=O)*; γGlu = O=C(O)[C@H](CCC(=O)[*:2])N[*:1]
What was measured:
[1] = target: T1, human calcitonin receptor (human, UniProt P30988 25-474); assay: SPA radioligand competition (125I-calcitonin), membranes of BHK cells with human calcitonin receptor
T1 construct: whole, on cells; also called hCTR; hCT
T1 sequence (looked up): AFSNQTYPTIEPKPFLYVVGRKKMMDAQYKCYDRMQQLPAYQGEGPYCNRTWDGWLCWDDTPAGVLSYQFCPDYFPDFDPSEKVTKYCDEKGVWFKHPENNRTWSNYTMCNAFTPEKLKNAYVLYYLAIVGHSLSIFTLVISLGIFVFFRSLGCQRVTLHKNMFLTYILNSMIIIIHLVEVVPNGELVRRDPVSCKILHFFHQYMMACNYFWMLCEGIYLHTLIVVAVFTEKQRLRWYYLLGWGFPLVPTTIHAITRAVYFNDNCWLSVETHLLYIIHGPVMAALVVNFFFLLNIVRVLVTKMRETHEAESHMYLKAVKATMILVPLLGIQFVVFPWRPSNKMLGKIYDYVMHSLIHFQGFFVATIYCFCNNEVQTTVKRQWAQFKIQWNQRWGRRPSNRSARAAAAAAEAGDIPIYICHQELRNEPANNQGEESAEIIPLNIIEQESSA
Procedure, shortened: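 BHK hCTR membranes 35 ng/μL + SPA beads 0.05 mg/well; buffer 50 mM Hepes pH 7.4, 1 mM CaCl2, 5 mM MgCl₂, 0.1% OA, 0.02% Tween20. 120 min, 25° C., shaking. Scintillation count; IC50 by one-site binding competition.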

[2] = target: T1, human calcitonin receptor; assay: ratio of IC50 at human calcitonin receptor to IC50 at human amylin receptor (SPA competition assays)
Procedure, shortened: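 Competition binding by SPA uses membrane preparations (35 ng/μL final) in pH 7.4 Hepes buffer with 1 mM CaCl2 and 5 mM MgCl₂. Incubation lasts 120 min at 25° C, and IC₅₀ comes from one-site fitting.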

| Binder | IC50 [1] | Ratio hCT/hAmylin binding [2] |
| --- | --- | --- |
| K([γGlu-γGlu-C20 diacid])CNTATCATQRLAEFLRHSSPNFGAIPSSTNVGRNTY-NH2 (disulfide 2-7; N-terminus assumed; SMILES CC[C@H](C)[C@H](NC(=O)[C@H](C)NC(=O)CNC(=O)[C@H](Cc1ccccc1)NC(=O)[C@H](CC(N)=O)NC(=O)[C@@H]1CCCN1C(=O)[C@H](CO)NC(=O)[C@H](CO)NC(=O)[C@H](Cc1c[nH]cn1)NC(=O)[C@H](CCCNC(=N)N)NC(=O)[C@H](CC(C)C)NC(=O)[C@H](Cc1ccccc1)NC(=O)[C@H](CCC(=O)O)NC(=O)[C@H](C)NC(=O)[C@H](CC(C)C)NC(=O)[C@H](CCCNC(=N)N)NC(=O)[C@H](CCC(N)=O)NC(=O)[C@@H](NC(=O)[C@H](C)NC(=O)[C@@H]1CSSC[C@H](NC(=O)[C@@H](N)CCCCNC(=O)CC[C@H](NC(=O)CC[C@H](NC(=O)CCCCCCCCCCCCCCCCCCC(=O)O)C(=O)O)C(=O)O)C(=O)N[C@@H](CC(N)=O)C(=O)N[C@@H]([C@@H](C)O)C(=O)N[C@@H](C)C(=O)N[C@@H]([C@@H](C)O)C(=O)N1)[C@@H](C)O)C(=O)N1CCC[C@H]1C(=O)N[C@@H](CO)C(=O)N[C@@H](CO)C(=O)N[C@H](C(=O)N[C@@H](CC(N)=O)C(=O)N[C@H](C(=O)NCC(=O)N[C@@H](CCCNC(=N)N)C(=O)N[C@@H](CC(N)=O)C(=O)N[C@H](C(=O)N[C@@H](Cc1ccc(O)cc1)C(N)=O)[C@@H](C)O)C(C)C)[C@@H](C)O, also called compound 88) | 34.9 nM | 46.5 |
| K([γGlu-γGlu-C20 diacid])CNTATCATQRLAEFLRHSSPNFGAIPSSTNVGPETY-NH2 (disulfide 2-7; N-terminus assumed; SMILES CC[C@H](C)[C@H](NC(=O)[C@H](C)NC(=O)CNC(=O)[C@H](Cc1ccccc1)NC(=O)[C@H](CC(N)=O)NC(=O)[C@@H]1CCCN1C(=O)[C@H](CO)NC(=O)[C@H](CO)NC(=O)[C@H](Cc1c[nH]cn1)NC(=O)[C@H](CCCNC(=N)N)NC(=O)[C@H](CC(C)C)NC(=O)[C@H](Cc1ccccc1)NC(=O)[C@H](CCC(=O)O)NC(=O)[C@H](C)NC(=O)[C@H](CC(C)C)NC(=O)[C@H](CCCNC(=N)N)NC(=O)[C@H](CCC(N)=O)NC(=O)[C@@H](NC(=O)[C@H](C)NC(=O)[C@@H]1CSSC[C@H](NC(=O)[C@@H](N)CCCCNC(=O)CC[C@H](NC(=O)CC[C@H](NC(=O)CCCCCCCCCCCCCCCCCCC(=O)O)C(=O)O)C(=O)O)C(=O)N[C@@H](CC(N)=O)C(=O)N[C@@H]([C@@H](C)O)C(=O)N[C@@H](C)C(=O)N[C@@H]([C@@H](C)O)C(=O)N1)[C@@H](C)O)C(=O)N1CCC[C@H]1C(=O)N[C@@H](CO)C(=O)N[C@@H](CO)C(=O)N[C@H](C(=O)N[C@@H](CC(N)=O)C(=O)N[C@H](C(=O)NCC(=O)N1CCC[C@H]1C(=O)N[C@@H](CCC(=O)O)C(=O)N[C@H](C(=O)N[C@@H](Cc1ccc(O)cc1)C(N)=O)[C@@H](C)O)C(C)C)[C@@H](C)O) | 2.13 nM | 17.6 |
| K([γGlu-γGlu-C20 diacid])CNTATCATQRLAEFLRHSSPNFGAIPSSTNVGHNTY-NH2 (disulfide 2-7; N-terminus assumed; SMILES CC[C@H](C)[C@H](NC(=O)[C@H](C)NC(=O)CNC(=O)[C@H](Cc1ccccc1)NC(=O)[C@H](CC(N)=O)NC(=O)[C@@H]1CCCN1C(=O)[C@H](CO)NC(=O)[C@H](CO)NC(=O)[C@H](Cc1c[nH]cn1)NC(=O)[C@H](CCCNC(=N)N)NC(=O)[C@H](CC(C)C)NC(=O)[C@H](Cc1ccccc1)NC(=O)[C@H](CCC(=O)O)NC(=O)[C@H](C)NC(=O)[C@H](CC(C)C)NC(=O)[C@H](CCCNC(=N)N)NC(=O)[C@H](CCC(N)=O)NC(=O)[C@@H](NC(=O)[C@H](C)NC(=O)[C@@H]1CSSC[C@H](NC(=O)[C@@H](N)CCCCNC(=O)CC[C@H](NC(=O)CC[C@H](NC(=O)CCCCCCCCCCCCCCCCCCC(=O)O)C(=O)O)C(=O)O)C(=O)N[C@@H](CC(N)=O)C(=O)N[C@@H]([C@@H](C)O)C(=O)N[C@@H](C)C(=O)N[C@@H]([C@@H](C)O)C(=O)N1)[C@@H](C)O)C(=O)N1CCC[C@H]1C(=O)N[C@@H](CO)C(=O)N[C@@H](CO)C(=O)N[C@H](C(=O)N[C@@H](CC(N)=O)C(=O)N[C@H](C(=O)NCC(=O)N[C@@H](Cc1c[nH]cn1)C(=O)N[C@@H](CC(N)=O)C(=O)N[C@H](C(=O)N[C@@H](Cc1ccc(O)cc1)C(N)=O)[C@@H](C)O)C(C)C)[C@@H](C)O, also called compound 87) | 22.5 nM | 35.6 |
| K([γGlu-γGlu-C20 diacid])CNTATCATQRLAEFLRHSSPNFGAIPSSTNVGSRTY-NH2 (disulfide 2-7; N-terminus assumed; SMILES CC[C@H](C)[C@H](NC(=O)[C@H](C)NC(=O)CNC(=O)[C@H](Cc1ccccc1)NC(=O)[C@H](CC(N)=O)NC(=O)[C@@H]1CCCN1C(=O)[C@H](CO)NC(=O)[C@H](CO)NC(=O)[C@H](Cc1c[nH]cn1)NC(=O)[C@H](CCCNC(=N)N)NC(=O)[C@H](CC(C)C)NC(=O)[C@H](Cc1ccccc1)NC(=O)[C@H](CCC(=O)O)NC(=O)[C@H](C)NC(=O)[C@H](CC(C)C)NC(=O)[C@H](CCCNC(=N)N)NC(=O)[C@H](CCC(N)=O)NC(=O)[C@@H](NC(=O)[C@H](C)NC(=O)[C@@H]1CSSC[C@H](NC(=O)[C@@H](N)CCCCNC(=O)CC[C@H](NC(=O)CC[C@H](NC(=O)CCCCCCCCCCCCCCCCCCC(=O)O)C(=O)O)C(=O)O)C(=O)N[C@@H](CC(N)=O)C(=O)N[C@@H]([C@@H](C)O)C(=O)N[C@@H](C)C(=O)N[C@@H]([C@@H](C)O)C(=O)N1)[C@@H](C)O)C(=O)N1CCC[C@H]1C(=O)N[C@@H](CO)C(=O)N[C@@H](CO)C(=O)N[C@H](C(=O)N[C@@H](CC(N)=O)C(=O)N[C@H](C(=O)NCC(=O)N[C@@H](CO)C(=O)N[C@@H](CCCNC(=N)N)C(=O)N[C@H](C(=O)N[C@@H](Cc1ccc(O)cc1)C(N)=O)[C@@H](C)O)C(C)C)[C@@H](C)O, also called compound 89) | 32.5 nM | 28 |
| K([γGlu-γGlu-C20 diacid])CNTATCATQRLAEFLRHSSPNFGAIPSSTNVGPRTY-NH2 (disulfide 2-7; N-terminus assumed; SMILES CC[C@H](C)[C@H](NC(=O)[C@H](C)NC(=O)CNC(=O)[C@H](Cc1ccccc1)NC(=O)[C@H](CC(N)=O)NC(=O)[C@@H]1CCCN1C(=O)[C@H](CO)NC(=O)[C@H](CO)NC(=O)[C@H](Cc1c[nH]cn1)NC(=O)[C@H](CCCNC(=N)N)NC(=O)[C@H](CC(C)C)NC(=O)[C@H](Cc1ccccc1)NC(=O)[C@H](CCC(=O)O)NC(=O)[C@H](C)NC(=O)[C@H](CC(C)C)NC(=O)[C@H](CCCNC(=N)N)NC(=O)[C@H](CCC(N)=O)NC(=O)[C@@H](NC(=O)[C@H](C)NC(=O)[C@@H]1CSSC[C@H](NC(=O)[C@@H](N)CCCCNC(=O)CC[C@H](NC(=O)CC[C@H](NC(=O)CCCCCCCCCCCCCCCCCCC(=O)O)C(=O)O)C(=O)O)C(=O)N[C@@H](CC(N)=O)C(=O)N[C@@H]([C@@H](C)O)C(=O)N[C@@H](C)C(=O)N[C@@H]([C@@H](C)O)C(=O)N1)[C@@H](C)O)C(=O)N1CCC[C@H]1C(=O)N[C@@H](CO)C(=O)N[C@@H](CO)C(=O)N[C@H](C(=O)N[C@@H](CC(N)=O)C(=O)N[C@H](C(=O)NCC(=O)N1CCC[C@H]1C(=O)N[C@@H](CCCNC(=N)N)C(=O)N[C@H](C(=O)N[C@@H](Cc1ccc(O)cc1)C(N)=O)[C@@H](C)O)C(C)C)[C@@H](C)O, also called compound 110) | 17.5 nM | 53.6 |
| K([γGlu-γGlu-C20 diacid])CNTATCATQRLAEFLRHSSPNFGAIPSSTNVGHETY-NH2 (disulfide 2-7; N-terminus assumed; SMILES CC[C@H](C)[C@H](NC(=O)[C@H](C)NC(=O)CNC(=O)[C@H](Cc1ccccc1)NC(=O)[C@H](CC(N)=O)NC(=O)[C@@H]1CCCN1C(=O)[C@H](CO)NC(=O)[C@H](CO)NC(=O)[C@H](Cc1c[nH]cn1)NC(=O)[C@H](CCCNC(=N)N)NC(=O)[C@H](CC(C)C)NC(=O)[C@H](Cc1ccccc1)NC(=O)[C@H](CCC(=O)O)NC(=O)[C@H](C)NC(=O)[C@H](CC(C)C)NC(=O)[C@H](CCCNC(=N)N)NC(=O)[C@H](CCC(N)=O)NC(=O)[C@@H](NC(=O)[C@H](C)NC(=O)[C@@H]1CSSC[C@H](NC(=O)[C@@H](N)CCCCNC(=O)CC[C@H](NC(=O)CC[C@H](NC(=O)CCCCCCCCCCCCCCCCCCC(=O)O)C(=O)O)C(=O)O)C(=O)N[C@@H](CC(N)=O)C(=O)N[C@@H]([C@@H](C)O)C(=O)N[C@@H](C)C(=O)N[C@@H]([C@@H](C)O)C(=O)N1)[C@@H](C)O)C(=O)N1CCC[C@H]1C(=O)N[C@@H](CO)C(=O)N[C@@H](CO)C(=O)N[C@H](C(=O)N[C@@H](CC(N)=O)C(=O)N[C@H](C(=O)NCC(=O)N[C@@H](Cc1c[nH]cn1)C(=O)N[C@@H](CCC(=O)O)C(=O)N[C@H](C(=O)N[C@@H](Cc1ccc(O)cc1)C(N)=O)[C@@H](C)O)C(C)C)[C@@H](C)O) | 15.2 nM | 29.1 |
